Data from patent US20190010233A1 (JIANGSU HYAMAB PHARMACEUTICAL, published 2019).
Read-outs that look alike come from different tables or passages of the source.

How the values were obtained:
[1] = target: T1, human PD-L1^ECD-hFc protein (human, UniProt Q9NZQ7 19-239, biotinylated in the PD-1 binding ELISA (Table 3) and in the Octet assay (Table 12)); experiment: BLI Octet Red 96, biotinylated PD-L1-hFc on SA sensor
T1 construct: The plain and the biotinylated protein are kept as one molecule; also called PD-L1-hFc; Immunogen A; not shown: human IgG Fc fragment (hFc)
T1 sequence (Q9NZQ7 19-239): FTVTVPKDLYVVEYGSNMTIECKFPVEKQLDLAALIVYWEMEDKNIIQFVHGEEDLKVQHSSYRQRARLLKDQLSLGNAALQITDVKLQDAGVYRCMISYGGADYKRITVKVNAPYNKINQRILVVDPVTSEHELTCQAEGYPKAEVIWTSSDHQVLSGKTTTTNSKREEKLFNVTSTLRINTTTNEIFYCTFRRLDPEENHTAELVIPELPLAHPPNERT
Procedure: Dissociation constants were determined by Octed red 96 (Fortiebio). The detailed operation and methods were followed according to the specifications of the instrument provided by the manufacturer. Briefly, a streptavidin sensor (SA sensor, Fortiebio) was used for the affinity determination. […] The reaction mixture was further incubated in PBS buffer (pH 7.4) containing 0.1% (v/w) BSA and 0.02% (v/v) Tween20 at 30° C. for 5 minutes.

[2] = target: T2, full length human PD-L1 on cells (human, UniProt Q9NZQ7 19-290); experiment: cell-based or functional assay
T2 sequence (Q9NZQ7 19-290 limits assumed): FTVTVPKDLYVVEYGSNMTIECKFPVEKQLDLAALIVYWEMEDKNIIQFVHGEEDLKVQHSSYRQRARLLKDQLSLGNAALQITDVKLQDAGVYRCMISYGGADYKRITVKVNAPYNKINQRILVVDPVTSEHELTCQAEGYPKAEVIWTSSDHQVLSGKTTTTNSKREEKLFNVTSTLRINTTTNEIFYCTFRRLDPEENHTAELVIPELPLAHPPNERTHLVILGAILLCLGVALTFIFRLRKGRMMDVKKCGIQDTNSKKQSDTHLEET

[3] = target: T1, human PD-L1^ECD-hFc protein; experiment: ELISA, 10 nM mAb
Procedure: (§1) 100 μL of the diluted recombinant proteins were added to each well of 96-well plate. The plates were sealed with plastic film and incubated at 4° C. overnight. The plates were washed twice with wash buffer (PBS+0.01% (v/v) Tween20), and incubated with blocking buffer (PBS+0.01% (v/v) Tween20+1% (w/w) BSA) at room temperature for 2 hours. The blocking buffer was aspirated away, and 100 μL of purified anti-PD-L1 antibodies were added to each well and incubated for 2 hours at 37° C. The plates were washed three times with wash buffer (PBS+0.01% (v/v) Tween20). HRP-conjugated secondary antibody (Sigma) was added to each well and incubated for 2 hours at 37° C. After the plates were washed three times with wash buffer, 100 μL TMB substrate were added to each well, and the plates were incubated for 30 minutes at room temperature. 100 μL stop solution (0.1N HCl) was added to each well to stop the reaction.

[4] = target: T1, human PD-L1^ECD-hFc protein; experiment: ELISA, 100 nM mAb
Procedure: as §1

[5] = target: T1, human PD-L1^ECD-hFc protein; experiment: ELISA, 0.01 nM mAb
Procedure: as §1

[6] = target: T2, full length human PD-L1 on cells; experiment: cell-based or functional assay; remark: listed apart in the source
[7] = target: T2, full length human PD-L1 on cells; experiment: FACS CHO-K1-hPD-L1, 100.00 nM mAb
[8] = target: T3, full length cyno PD-L1 on cells (cyno, UniProt G7PSE7 19-290); experiment: FACS CHO-K1-cPD-L1, 100.00 nM mAb
T3 construct: also called CHO-K1-cPD-L1
T3 sequence (G7PSE7 entry or part of it limits assumed): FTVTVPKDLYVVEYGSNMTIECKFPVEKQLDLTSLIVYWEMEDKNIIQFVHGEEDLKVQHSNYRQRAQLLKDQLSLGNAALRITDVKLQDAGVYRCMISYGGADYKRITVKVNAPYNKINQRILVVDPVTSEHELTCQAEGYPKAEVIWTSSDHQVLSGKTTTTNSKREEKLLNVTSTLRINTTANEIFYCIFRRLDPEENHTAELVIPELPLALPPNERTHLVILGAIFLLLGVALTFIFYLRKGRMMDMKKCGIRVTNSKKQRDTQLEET
Procedure: (§2) Other CHO-K1 were stably transfected with a pIRES plasmid containing the nucleic acid sequence encoding full length cyno PD-L1 to generate CHO-K1 cells stably expressing cyno PD-L1 (herein referred to as CHO-K1-cPD-L1 cells). […] The culture media was aspirated, and the cells were washed twice with HBSS (Hanks Balanced Salt Solution, Invitrogen). The cells were treated with enzyme-free cell dissociation solution (Versene solution, Invitrogen) and collected. The cells were then washed twice with HBSS, cell counts were determined, and cells were resuspended with HBSS at 2×10⁶ cells/mL. Goat serum was added to the cell suspension to a final concentration of 1%, and the cells were blocked for 30 minutes on ice and then washed twice with HBSS. The cells were collected after centrifugation and resuspended in FACS buffer (HBSS+1% BSA, v/v) at 2×10⁶ cells/mL. 100 μL of the cell suspension were then added to each well of 96-well plate. 100 μL of purified anti-PD-L1 antibodies from Example 2 were added to each well of the 96-well plate and incubated for 2 hours on ice. […] The samples were washed three times with FACS buffer, and 100 μL fixation buffer (4% paraformaldehyde v/v) were added to each well and incubated for 10 minutes. The cells were then washed twice with FACS buffer and resuspended in 100 μL FACS buffer. The mean fluorescence intensity (MFI) was determined using FACS Calibur (BD), and the results are shown in FIGS. 7-8 and in Tables 10-11.

[9] = target: T3, full length cyno PD-L1 on cells; experiment: FACS CHO-K1-cPD-L1, 1 nM mAb
Procedure: as §2

[10] = target: T2, full length human PD-L1 on cells; experiment: cell-based or functional assay; remark: listed apart in the source
[11] = target: T2, full length human PD-L1 on cells; experiment: cell-based or functional assay; remark: listed apart in the source

B1: chimeric anti-PD-L1 antibody 127D2F3 (antibody, V domains shown)
VH: EVQLVESGGGLVQPGGSLRLSCVASGFTFSSYWMSWVRQAPGKGLEWVANIKQDGSEKYYVDSVKGRLTISRDNAKNSLYLQMKSLRAEDTAVYYCARDPIYSSYFDYWGQGILVTVSS
VL: DIQMTQSPSSLSASVGDRVTITCRASQSISNYLNWYQQKPGKAPKLLIYAASSLQSGVPSRFSGSGSGTDFTLTISSLQPEDFAAYYCQQSYGIPFTFGPGTKVDIK
notes: Purified from hybridoma of Harbour H2L2 mice: human variable regions, rat constant regions
With B1 the Kd [1] was < 0.001 nM, the koff [1] was < 1e-07 s⁻¹ and the kon [1] was 368000 M⁻¹ s⁻¹. The “IL-2 (pg/mL), MLR donor1, 0.001 µg/mL mAb” value [2] was 226 pg/mL, the “IL-2 (pg/mL), MLR donor1, 0.01 µg/mL mAb” value [2] was 274 pg/mL and the “IL-2 (pg/mL), MLR donor1, 0.1 µg/mL mAb” value [2] was 429 pg/mL. For the same binder, the “IL-2 (pg/mL), MLR donor1, 1 µg/mL mAb” value [2] was 497 pg/mL, the “IL-2 (pg/mL), MLR donor1, 10 µg/mL mAb” value [2] was 440 pg/mL and the OD450 nm [3] was 2.7. For the same binder, the OD450 nm [4] was 2.63, the OD450 nm [5] was 0.38 and the “IFN-γ (pg/mL), PBMC stimulation, 0.001 µg/mL mAb” value [6] was 3380 pg/mL. The “IFN-γ (pg/mL), PBMC stimulation, 0.01 µg/mL mAb” value [6] was 7030 pg/mL, the “IFN-γ (pg/mL), PBMC stimulation, 0.1 µg/mL mAb” value [6] was 7610 pg/mL and the “IFN-γ (pg/mL), PBMC stimulation, 1 µg/mL mAb” value [6] was 8100 pg/mL. The “IFN-γ (pg/mL), PBMC stimulation, 10 µg/mL mAb” value [6] was 10100 pg/mL, the Mean fluorescence intensity [7] was 234 and the Mean fluorescence intensity [8] was 117. For the same binder, the Mean fluorescence intensity [9] was 80.5, the “IFN-γ (pg/mL), MLR, 0.001 µg/mL mAb” value [10] was 6040 pg/mL and the “IFN-γ (pg/mL), MLR, 0.01 µg/mL mAb” value [10] was 6280 pg/mL. The “IFN-γ (pg/mL), MLR, 0.1 µg/mL mAb” value [10] was 8760 pg/mL, the “IFN-γ (pg/mL), MLR, 1 µg/mL mAb” value [10] was 12600 pg/mL and the “IFN-γ (pg/mL), MLR, 0.001 µg/mL mAb” value [11] was 599 pg/mL. The “IFN-γ (pg/mL), MLR, 0.01 µg/mL mAb” value [11] was 1560 pg/mL, the “IFN-γ (pg/mL), MLR, 0.1 µg/mL mAb” value [11] was 3010 pg/mL and the “IFN-γ (pg/mL), MLR, 1 µg/mL mAb” value [11] was 2840 pg/mL. For the same binder, the “IFN-γ (pg/mL), MLR, 10 µg/mL mAb” value [11] was 4840 pg/mL.

B2: chimeric anti-PD-L1 antibody 192D9E7 (antibody, V domains shown)
VH: EVQLVESGGGLVQPGGSLRLSCAASGFTFSSYWMSWVRQAPGKGLEWVADIKQDGSEKYYVDSVKGRFTISRDNAKNSLYLQMNSLRAEDTAVYYCTRDKPHWGGVMDAWGQGTSVTVSS
VL: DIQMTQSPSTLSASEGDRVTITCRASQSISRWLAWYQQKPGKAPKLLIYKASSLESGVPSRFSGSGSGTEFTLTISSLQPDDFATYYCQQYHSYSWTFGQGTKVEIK
notes: as for B1
A Kd [1] of 0.0519 nM, a koff [1] of 2.63e-05 s⁻¹ and a kon [1] of 506000 M⁻¹ s⁻¹ were found for B2 in this work. The “IL-2 (pg/mL), MLR donor1, 0.001 µg/mL mAb” value [2] was 211 pg/mL, the “IL-2 (pg/mL), MLR donor1, 0.01 µg/mL mAb” value [2] was 371 pg/mL and the “IL-2 (pg/mL), MLR donor1, 0.1 µg/mL mAb” value [2] was 473 pg/mL. For the same binder, the “IL-2 (pg/mL), MLR donor1, 1 µg/mL mAb” value [2] was 461 pg/mL, the “IL-2 (pg/mL), MLR donor1, 10 µg/mL mAb” value [2] was 488 pg/mL and the OD450 nm [3] was 2.69. The OD450 nm [4] was 2.7, the OD450 nm [5] was 0.4 and the “IFN-γ (pg/mL), PBMC stimulation, 0.001 µg/mL mAb” value [6] was 602 pg/mL. For the same binder, the “IFN-γ (pg/mL), PBMC stimulation, 0.01 µg/mL mAb” value [6] was 501 pg/mL, the “IFN-γ (pg/mL), PBMC stimulation, 0.1 µg/mL mAb” value [6] was 7470 pg/mL and the “IFN-γ (pg/mL), PBMC stimulation, 1 µg/mL mAb” value [6] was 8300 pg/mL. For the same binder, the “IFN-γ (pg/mL), PBMC stimulation, 10 µg/mL mAb” value [6] was 15700 pg/mL, the Mean fluorescence intensity [7] was 146 and the Mean fluorescence intensity [8] was 87.9. For the same binder, the Mean fluorescence intensity [9] was 77.2, the “IFN-γ (pg/mL), MLR, 0.001 µg/mL mAb” value [10] was 4730 pg/mL and the “IFN-γ (pg/mL), MLR, 0.01 µg/mL mAb” value [10] was 8100 pg/mL. For the same binder, the “IFN-γ (pg/mL), MLR, 0.1 µg/mL mAb” value [10] was 9060 pg/mL, the “IFN-γ (pg/mL), MLR, 1 µg/mL mAb” value [10] was 12400 pg/mL and the “IFN-γ (pg/mL), MLR, 0.001 µg/mL mAb” value [11] was 221 pg/mL. For the same binder, the “IFN-γ (pg/mL), MLR, 0.01 µg/mL mAb” value [11] was 2000 pg/mL, the “IFN-γ (pg/mL), MLR, 0.1 µg/mL mAb” value [11] was 3120 pg/mL and the “IFN-γ (pg/mL), MLR, 1 µg/mL mAb” value [11] was 3300 pg/mL. For the same binder, the “IFN-γ (pg/mL), MLR, 10 µg/mL mAb” value [11] was 4080 pg/mL.
